Several values for one entry are separate records, joined by “and”; a condition that tells them apart may be missing. Equal entries are not always repeated.
Tests used:
[1] = molecular target: T1, mouse tumor necrosis factor (TNF) (Mus musculus C57Bl/6, UniProt P06804); assay: flow cytometry on cells; intracellular cytokine staining (BD fixation and permeabilisation kit with GolgiPlug) of BMDM activated by LPS (100 ng/mL, 4 h) in the presence of brefeldin A; Fc-gamma receptor blocked; cells gated on F4/80; Katushka fluorescence read; conditions: one partner purified
T1 construct: tumor necrosis factor, mouse; stained inside fixed and permeabilised cells kept with brefeldin A; also called mouse TNF; murine TNF

[2] = molecular target: T2, human tumor necrosis factor (TNF) (Homo sapiens (huTNFKI mouse BMDM), UniProt P01375); assay: as above; conditions: one partner purified
T2 construct: tumor necrosis factor, human, expressed in place of murine TNF in huTNFKI mice; stained inside fixed and permeabilised cells kept with brefeldin A; in the in vivo rows the hTNF of the knock-in mice; also called hTNF; human TNF

[3] = molecular target: fluorescent-binding TNF nanobody (BTN-Kat) (Bactrian camel); assay: SEC; Superose 6, 5 mg/mL protein, 20 mM NaPi pH 7.4, 150 mM NaCl, 0.5 mL/min; apparent molecular mass from calibration with standard proteins

T2 sequence (P01375 whole entry): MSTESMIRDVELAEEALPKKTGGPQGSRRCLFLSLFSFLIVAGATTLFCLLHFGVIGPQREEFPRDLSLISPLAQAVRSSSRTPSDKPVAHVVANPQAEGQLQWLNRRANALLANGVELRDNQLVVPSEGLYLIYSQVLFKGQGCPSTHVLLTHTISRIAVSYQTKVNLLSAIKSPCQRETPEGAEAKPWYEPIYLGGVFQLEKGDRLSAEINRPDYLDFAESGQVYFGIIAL
T1 sequence (P06804 whole entry): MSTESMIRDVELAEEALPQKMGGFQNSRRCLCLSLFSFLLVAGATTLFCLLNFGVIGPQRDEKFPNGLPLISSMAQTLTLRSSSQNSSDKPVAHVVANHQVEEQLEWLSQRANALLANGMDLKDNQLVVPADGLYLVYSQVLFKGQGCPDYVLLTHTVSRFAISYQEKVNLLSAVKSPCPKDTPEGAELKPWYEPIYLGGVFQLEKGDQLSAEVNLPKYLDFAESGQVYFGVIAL

- stoichiometry N [3]: 2 and 3
B1: fluorescent-binding TNF nanobody (BTN-Kat) (VHH)
VHH: QVQLVESGGGSVQAGGSLRLSCAASGSTNSELCMAWFREVPGKEREVVALVNSDGRTIYGEAVKGRFTMSKDNAKNTLYLQMNSLKAEDTAMYYCAAGPGFFGRCNYNSVGQGTQVTVSS
notes: flexible glycine-serine linker; far-red fluorescent protein Katushka (TurboFP635); A mixture of oligomeric forms was used in all experiments; Expression and purification are in Method S1; also called VHH41 fused to Katushka; source: E. coli (BL21(DE3) is named in the title of Result S1), purified
- binding result [1]: binds
- binding result [2]: binds
